The text below walks through data of article PMC12767022.

The target of the test is MBP‐Spz, maltose‐binding protein‐tagged Spz (Drosophila melanogaster) (UniProt P48607).
Chain of UniProt P48607 (P48607 26-326): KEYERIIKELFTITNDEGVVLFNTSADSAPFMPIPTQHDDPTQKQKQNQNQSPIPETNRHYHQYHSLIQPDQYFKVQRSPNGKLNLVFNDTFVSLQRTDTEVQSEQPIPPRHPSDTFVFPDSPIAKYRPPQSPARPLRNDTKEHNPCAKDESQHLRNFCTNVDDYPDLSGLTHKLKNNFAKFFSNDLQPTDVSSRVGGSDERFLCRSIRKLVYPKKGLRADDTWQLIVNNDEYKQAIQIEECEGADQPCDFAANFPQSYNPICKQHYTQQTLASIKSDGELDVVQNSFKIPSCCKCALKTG

For “GST‐ETS1, glutathione S‐transferase‐tagged ETS1 (enzyme)”, the degradation of Spz by purified ETS1 (SDS‐PAGE band intensity, 0–4 h, 1 mM each CoCl2 and CaCl2): about half within 1 h, 80% after 4 h worked out at 80%.
